In patent US20180291110A1 (Hoffmann-La Roche, published 2018):

T1: cynomolgus transferrin receptor (recombinant, for surface plasmon resonance) (cynomolgus)
T1 chain: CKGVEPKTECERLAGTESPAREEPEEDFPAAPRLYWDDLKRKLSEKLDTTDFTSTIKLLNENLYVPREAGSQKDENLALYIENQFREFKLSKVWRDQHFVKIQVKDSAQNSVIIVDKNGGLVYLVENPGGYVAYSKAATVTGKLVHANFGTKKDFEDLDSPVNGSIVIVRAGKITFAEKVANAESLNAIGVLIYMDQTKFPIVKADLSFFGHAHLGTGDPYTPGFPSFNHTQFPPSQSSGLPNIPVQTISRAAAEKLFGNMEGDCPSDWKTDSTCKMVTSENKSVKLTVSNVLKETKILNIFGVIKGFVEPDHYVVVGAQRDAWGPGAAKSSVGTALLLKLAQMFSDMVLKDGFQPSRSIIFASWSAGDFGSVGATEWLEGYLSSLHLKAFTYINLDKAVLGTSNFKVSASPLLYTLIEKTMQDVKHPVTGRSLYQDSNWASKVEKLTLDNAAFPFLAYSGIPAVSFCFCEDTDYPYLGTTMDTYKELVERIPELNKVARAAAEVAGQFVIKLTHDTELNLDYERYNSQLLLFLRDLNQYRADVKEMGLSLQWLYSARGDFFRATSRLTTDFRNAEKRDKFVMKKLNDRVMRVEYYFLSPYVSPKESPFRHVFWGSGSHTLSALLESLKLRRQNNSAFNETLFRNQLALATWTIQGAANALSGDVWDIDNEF

B1: Trastuzumab HC x Pertuzumab (Tras.Y91H) LC (antibody, V domains shown)
VH: not shown
VL: DIQMTQSPSSLSASVGDRVTITCKASQDVSIGVAWYQQKPGKAPKLLIYSASYRYTGVPSRFSGSGSGTDFTLTISSLQPEDFATYYCQQHYIYPYTFGQGTKVEIK
notes: human IgG
B2: Rabbit anti-transferrin antibody clone 2/99 (antibody, V domains shown)
VH: QSMEESGGRLVTPGTPLTLTCTVSGFSLSSYAMSWVRQAPGKGLEWIGYIWSGGSTDYASWAKGRFTISKTSTTVDLKITSPTTEDTATYFCARRYGTSYPDYGDANGFDPWGPGTLVTVSS
VL: AYDMTQTPASVEVAVGGTVTIKCQASQSISSYLSWYQQKPGQRPKLLIYRASTLASGVSSRFKGSGSGTQFTLTISGVECADAATYYCQQCYSSSNVDNTFGGGTEVVVKR
notes: also called antibody 2/99

Tests used:
[1] = biological target: T2, Her2 ECD (amino acids 1 to 629 of matured HER2 with C-terminal avi-tag and His-tag) (human, UniProt P04626 23-652); assay: SPR, antibody captured, Her2 analyte; N/A in Table 18
T2 construct: also called purified Her2

[2] = biological target: T3, human transferrin receptor on CHO-K1 cells (human, UniProt P02786 1-760); assay: FACS, hTfR-CHO
T3 construct: whole, on cells; also called hTfR-CHO

[3] = biological target: T4, cynomolgus transferrin receptor on CHO-K1 cells (cynomolgus, UniProt H9EXL1 1-760 (rhesus entry)); assay: FACS, cyTfR-CHO against hTfR-CHO
T4 construct: whole, on cells; also called cyTfR; Cyno TfR-CHO

[4] = biological target: T1, cynomolgus transferrin receptor …; assay: BIAcore
[5] = biological target: T5, human transferrin receptor (recombinant, for surface plasmon resonance) (human, UniProt P02786 89-760); assay: BIAcore
T5 construct: also called huTfR; human transferrin receptor-biotinylated

[6] = biological target: T4, cynomolgus transferrin receptor on …; assay: FACS, cyTfR-CHO
[7] = biological target: T5, human transferrin receptor …; assay: BIAcore, huTfR against cyTfR

binding result [1] | EC50 [2] [µg/mL] | ratio EC50 Cyno/human [3] | ratio max Cyno/human [3] | koff [4] [s⁻¹] | t1/2 [4] [min] | koff [5] [s⁻¹] | t1/2 [5] [min] | EC50 [6] [µg/mL] | ratio t1/2 human/Cyno [7] | Binder
no binding (tested: 300 nM) | – | – | – | – | – | – | – | – | – | B1
– | 0.275 | 0.9 | 1 | 0.000277 | 42 | 0.000616 | 19 | 0.241 | 0.4 | B2
